{"source": "patent US20160264684A1", "about": "“GLYCAN-INTERACTING COMPOUNDS AND METHODS OF USE” (SIAMAB THERAPEUTICS, INC., priority 2013, published 2016)", "molecules": {"B1": {"name": "18D2: anti-STn monoclonal antibody from mouse #4436; IgG2b κ; heavy chain SEQ ID NO 1, light chains SEQ ID NO 2 and 3 (antibody, V domains shown)", "VH": "QVTLKESGPGILQPSQTLSLTCSFSGFSLSTSNMGIGWIRQPSGKGLEWLAHIWWHDDKYYNPSLKSRLTISKDISNNQVFLKITSVDTADTATYYCAQVPFYYGTSFDVWGTGTTVTVSS", "VL 1": "DIVMTQSPATLSVTPGDRVSLSCRASQSISDYLHWYQQKSHESPRLLIKYASQSISGIPSRFSGSGSGSDFTLSINSVEPEDVGVYYCQNGHSFPLTFGAGTKLELK", "VL 2": "QIVLTQSPAIMSASPGETVTMTCSASSSITYMHWYQQKPGTSPKRWIYDTSKLASGVPARFSGSGSGTSYSLTISSMEAEDAATYYCHQRSSYTFGGGTKLEIKR"}}, "key": {"[1]": {"system": "STn on bovine submaxillary mucin (BSM)", "test": "Anti-STn BSM ELISA", "type": "binding", "protocol": "Anti-STn serum titer is determined using a murine anti-STn bovine submaxillary mucin (BSM) ELISA together with serum profiles observed by glycan microarray. 96-well plates are coated with 1 μg/well of BSM and incubated overnight at 4° C. O-acetylation of BSM antigen is removed by treating wells with 0.1 M sodium hydroxide. Specific binding to STn is determined by treatment of wells with sodium periodate. Periodate treatment destroys the C6 side chain of sialic acid; therefore antibodies raised against STn should not bind to periodate-treated wells. Wells are blocked with PBS 1% ovalbumin (OVA). Serum samples to be assayed are serially diluted in PBS 1% OVA. A commercially available mouse anti-STn monoclonal antibody, 3F1 (SBH Sciences, Natick, Mass.) is used as a positive control. This antibody is also serially diluted in PBS with 1% OVA. A pool of serum from naïve wild type mice is used for the preparation of negative control samples. Detection of anti-STn antibodies present in serum is determined using an HRP-conjugated polyclonal goat anti-mouse IgG antibody (Jackson Immunoresearch, West Grove, Pa.). The reaction is stopped by addition of sulfuric acid (1.6 M). Optical densities are measured at 490 nm using a Spectramax microplate reader (Molecular Devices, Sunnyvale, Calif.). The serum titer is obtained by comparison of OD values with a cutoff value calculated as two standard deviations above the mean of optical density values of the negative control. […]\nBinding affinities of 18D2 and 18C7 to STn were compared to commercially available anti-STn antibodies using the BSM ELISA assay described in Example 2. […] Antibody binding was determined using HRP-conjugated polyclonal goat anti-mouse IgG antibody (Jackson Immunoresearch Laboratories, West Grove, Pa.). […] Optical densities were measured at 490 nm using a Spectramax microplate reader. […] The half maximal effective concentration (EC50) for each antibody was calculated using a non-linear regression analysis carried out on periodate subtracted data."}, "[2]": {"system": "ST6GalNAc 1 transfected MDA-MB-231 cells", "test": "Flow cytometry-based analysis of antibody binding, STn+ cells", "type": "cell-based, human", "protocol": "Flow cytometry-based analysis is carried out to elucidate the curve-dose response for binding of antibodies to cell surface antigens. For these analyses, three cell lines are employed.\nMDA-MB-231 cells are human breast cancer cells. They are grown in Earle's Minimum Essential Medium supplemented with 10% fetal calf serum (FCS), 100 μg/ml penicillin, 100 UI/ml streptomycin and 45 μg/ml gentamycin. MCF-7 cells are also human breast cancer cells and are grown under the same conditions as MDA-MB-231 cells. Stably transfected versions of MDA-MB-231 and MCF-7 cells (clone TAH3.P10 for MDA-MB-231 cells and clone A12.1 for MCF-7 cells) that over express GalNAc α2,6-sialyltransferase (ST6GalNAc 1,) are also cultured under the same conditions with the exception of an added 1 mg/ml of G418 to support cells expressing the transgene. ST6GalNAc 1 is an enzyme capable of sialylating GalNAc. […]\nFor analysis, cells are harvested using StemPro Accutase (Life Technologies, Carlsbad, Calif.) and washed with PBS comprising 5% FBS before pelleting by light centrifugation. Cell numbers and viability are determined by trypan blue dye exclusion analysis and cell concentrations are adjusted to 5×10^6 cells/ml in PBS with 5% FBS. […] Cells are combined with 50 μl solutions of antibody being analyzed or control antibodies and incubated for 1 hour at 4° C. […]"}, "[3]": {"test": "Glycan microarray analysis, 9-O-acetylated GcSTn", "type": "binding", "protocol": "(§1) Optimized glycan arrays comprise 71 chemically synthesized and well-defined glycans, most of which comprise Neu5Ac and Neu5Gc glycan pairs.\n(§2) 300 ml of epoxy blocking buffer is prepared by combining 15 ml of 2 M Tris buffer (pH 8) with 0.9 ml of 16.6 M ethanolamine and 284.1 ml of distilled water. The solution is filtered using a 0.2 μM nitrocellulose membrane. The epoxy buffer solution as well as 1 L of distilled water are pre-warmed to 50° C. Glass slides are arranged in a slide holder and quickly submerged in a staining tub with the warmed epoxy blocking buffer. Slides are incubated in the epoxy blocking buffer for 1 hour at 50° C. with periodic shaking to deactivate epoxy binding sites. Next, slides are rinsed and blocked with PBS with 1% OVA at 25° C. for one hour. Serum samples are diluted 1:1000 in PBS with 1% OVA and added to the glycan array for one hour at 25° C. After extensive washing, binding of polyclonal serum antibodies are detected by incubating glycan microarray slides with Cy3-conjugated anti-mouse IgG (Jackson Immunoresearch, West Grove, Pa.) for one hour. […]\n(§3) 18D2 and 18C7 clones were expanded and binding properties of these hybridomas were determined by glycan microarray analysis according to Example 4. […] No binding to Tn antigen or other glycans was detected."}, "[4]": {"test": "Glycan microarray analysis, Tn antigen or other glycans", "type": "binding", "protocol": "as §1, §2, §3"}, "[5]": {"test": "Glycan microarray analysis, GcSTn", "type": "binding", "protocol": "as §1, §2, §3"}}, "note": "Values joined by “and” are separate entries in the source; they are usually repeats but may differ in a detail not shown here. Identical values can stand only once."}
{"molecule": "B1", "values": [{"measurement": "binding to periodate-treated wells", "setting": "[1]; BSM ELISA, sodium periodate treated wells", "result": "did not bind"}, {"measurement": "EC50", "setting": "[1]; non-linear regression on periodate subtracted data, 7-point 1:5 dilution from 100 nM", "result": 6.3, "unit": "nM"}, {"measurement": "EC50, flow cytometry binding to cell-associated STn", "setting": "[2]; ST6GalNAc 1 transfected MDA-MB-231 cells (STn expressed on MDA cells)", "result": "44.08 nM and 74.51 nM"}, {"measurement": "EC50", "setting": "[2]; no unit printed (same values in nM in b551, b556)", "result": 65.8, "unit": "nM"}, {"measurement": "mean fluorescence intensity, Neu5,9Ac5Gc-α2,6-GalNAc", "setting": "[3]", "result": "about 4,000"}, {"measurement": "binding to Tn antigen or other glycans", "setting": "[4]", "result": "No binding"}, {"measurement": "Glycan Array GcSTn", "setting": "[5]", "result": 50, "unit": "%"}, {"measurement": "mean fluorescence intensity, GcSTn", "setting": "[5]; glycan microarray", "result": "about 7,000"}]}
